Paper doi:10.1101/467571

Legend:
rTrx = rTrx (UniProt P0AA25 1-109); assay: EMSA
rDorsal-RHD [1] = biological target: T1, rDorsal-RHD (Litopenaeus vannamei, UniProt D2E9Y3 74-253); assay: EMSA
T1 sequence: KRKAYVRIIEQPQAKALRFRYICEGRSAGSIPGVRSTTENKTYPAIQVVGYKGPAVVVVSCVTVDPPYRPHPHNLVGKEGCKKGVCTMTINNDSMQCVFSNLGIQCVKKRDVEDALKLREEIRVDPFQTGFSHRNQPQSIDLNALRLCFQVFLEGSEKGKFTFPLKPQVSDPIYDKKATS

rDorsal-RHD [2] = biological target: T1, rDorsal-RHD; assay: competition

Chain of rTrx (P0AA25 whole entry): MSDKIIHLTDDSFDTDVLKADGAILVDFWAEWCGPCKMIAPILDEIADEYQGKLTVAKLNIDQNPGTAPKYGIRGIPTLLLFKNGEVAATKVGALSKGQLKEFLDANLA

B1: probe 1 (BigPEN kB1) (dsDNA)
DNA 1: TCTGTGTGTGTGTCCTTTAGTGTTTTTCGCCGGAGAAAACATTATCAGAC
DNA 2: GTCTGATAATGTTTTCTCCGGCGAAAAACACTAAAGGACACACACACAGA
Question: Does B1 bind (rTrx)?
Answer: no binding

Question: Does B1 bind (rDorsal-RHD [1])?
Answer: binds

B2: unlabeled probe 1 (dsDNA)
DNA 1: TCTGTGTGTGTGTCCTTTAGTGTTTTTCGCCGGAGAAAACATTATCAGAC
DNA 2: GTCTGATAATGTTTTCTCCGGCGAAAAACACTAAAGGACACACACACAGA
Question: Does B2 bind (rDorsal-RHD [2])?
Answer: binds

B3: Mut-bio-probe 1 (dsDNA)
DNA 1: TCTGTGTGTGTGTCCTTTACGGAGAAAACATTATCAGA
DNA 2: TCTGATAATGTTTTCTCCGTAAAGGACACACACACAGA
Question: Does B3 bind (rDorsal-RHD [1])?
Answer: no binding
